Measured values as given in the DeepSol protein solubility set.

Experiment: soluble on expression in E. coli; label from the status in PepcDB or PDB records

Row | Sequence | soluble on expression in E. coli
1 | GAMGSEEKLREVSSQDPVTGLYNRSHFLDLMDAAVQQAVTARKPSTLAYIHLNGYPSLQADHGLSGIDLLLGQLAGLMREQFGEEADLARFGDSIFAALFKGKTPEQAQAALQRLLKKVENHLFELNGRSAQATLSIGVAGLDEKTAKAQDVMNRAHRCADDAARKGGSQIKQYNPAEELAAAAQRGDVIAILQQALETNSFRLLFQPVISLRGDSHENYEVLLRLLNPQGQEVPPAEFLHAAKEAGLAEKIDRWVILNSIKLLAEHRAKGHQTKLFVHLSSASLQDPGLLPWLGVALKAARLPPESLVFQISEADATSYLKQAKQLTQGLATLHCQAAISQFGCSLNPFNALKHLTVQFIKIDGSFVQDLNQVENQEILKGLIAELHEQQKLSIVPFVESASVLATLWQAGATYIQGYYLQGPSQAMDYDFSSGDE | soluble
2 | MSKVKTRFAPSPTGYLHLGNARTAIFSYLFARHNNGGFVLRIEDTDPERSKKEYEEMLIEDLKWLGIDWDEFYRQSERFDIYREYVNKLLESGHAYPCFCTPEELEKEREEARKKGIPYRYSGKCRHLTPEEVEKFKKEGKPFAIRFKVPENRTVVFEDLIKGHIAINTDDFGDFVIVRSDGSPTYNFVVVVDDALMGITHVIRGEDHIPNTPKQILIYEALGFPVPKFAHLPVILGEDRSKLSKRHGAVSVRAYREEGYMPEALFNYLCLLGWSPPEEGREIFSKEELIKIFDLKDVNDSPAVFNKEKLKWMNGVYIREVLPLDVLLERAIPFLEKAGYDTSDREYIKKVLEYTRDSFDTLSEMVDRLRPFFVDEFEIPEELWSFLDDEKAYQVLSAFLEKIREKKPETPQEVKKLAKEIQKALKVKPPQVWKPLRIALTGELEGVGIDILIAVLPKEKIEKRILRVLEKLS | soluble
3 | MENKKNDNQQPTVASAHHPFYLGEMKKGMFACWTVTTQCCDDTKVTILDDTGKVYATYTKAFTQSHNLTLLGQGNAIIEGNELRVYVDSSMSSQLIASTNTHLINDLNARKVGAVTDICIEDQTDNDFNDVYINVVAWNKKG | not soluble
4 | MTEKVSRFPGVFPLIVIGVPGSVDKTHKKLAFAPNLNRWRDIDVEKYFKVFEVYLENDANLAALAEMMRNKHFGDRKNIVYILVREGIGGGIIIEGKLYKGSFNAAGEIGHMKMYDRGPCFCGRVGCWEANTSISHCVRQYEKKKPLPGNTMYEKFETLCRIYEEDPLAKEVLDEFTGILIDGIVNLVNILSPEIVIVGGEGVFLPESVFEVIVSETRRQVHPMDKEVSVEKGSLSNKEVVLEGTSILSSMMISERLV | soluble
5 | MRKIKIGLALGSGAARGWSHIGVINALKKVGIEIDIVAGCSIGSLVGAAYACDRLSALEDWVTSFSYWDVLRLMDLSWQRGGLLRGERVFNQYREIMPETEIENCSRRFAAVATNLSTGRELWFTEGDLHLAIRASCSIPGLMAPVAHNGYWLVDGAVVNPIPISLTRALGADIVIAVDLQHDAHLMQQDLLSFNVSEENSENGDSLPWHARLKERLGSITTRRAVTAPTATEIMTTSIQVLENRLKRNRMAGDPPDILIQPVCPQISTLDFHRAHAAIAAGQLAVERKMDELLPLVRTNI | not soluble
6 | MGSDKIHHHHHHMPKLASIAPSMESTRPLLQPITVVNRQLQAHCHVMSHSHLWGQFVYASQGVLAVNTPAARYLVTPEQGVWVNSNISHSVTAITEVRLTSFYLDESQCQALPEQSCVLNVAPFLHALIQEARLIPSDFDWQGPRGRLLRLIRDWLSEAKNAPFHLPYSSHPKLMQLFGELQNNPANQDNIATWGQRLGASSRTLSRLIKAETGLSYRHWRQRLNLQLSLSLLAQGHSINHIADSLGYASPSAFIHMFKQQTGDSPARYRK | not soluble
7 | ILTAGPTVDGRNIEQSVIDDIAETYDPKRYNARINEEHWSWSDKFGSVLSVEKRDDQLFAVLKPNSLLLSTIEKGQLLHTSCEIRANFQGTGKSYLTGLALTDEPASVGTTEMHLSAKEKNKDKSYFSSGATISKDDLSNNIDVDVQEDRKFLSRLKQLLSLGEPDKTQSLEESEDMNEELKELLQAQTAAVTALTAQVTSLAATLNKEESAPVEEENNETELAEKVDALSTKLDDVVTKLSNITDEPNRNLAGVDGDTEY | not soluble
8 | MGSDKIHHHHHHMLTRTHEAIPEIMYRIGDLADETGLPCYIVGGYVRDLIMQRPCTDIDIMVIGEPVPFAHALAEKLGGRNFVLFERFRTAQLELDDPKAGTFKLEIVGARKESYNPESRKPITSIGTLEDDLSRRDFTINALALRLNRKERGEVVDLFDGQRHIREKLLKTPLDPEQTFSDDPLRMMRAARFACQLDFQLDEATLTAMSTMSSRIQIVSRERVSHEFFKIMEARKPSIGLKILYSTGLLKEIIPELTVMAGIEQVDGLGHKDTLFHTFQVVDNLAEHSDKLWLRVSALFHDIAKPVTKRFHPGSGWTFHGHEAVGVKIVARIFRAMKWPLEPMEYVQKMVRLHHRPIPLSKEEITDSAVRRLMFDAGPDLDDLMTLCRADVTSKNPRKVQRIMKNFSNVEAKIAEVGEKDLLAKWRPPVSGTDIMELLNLPQGRTVGIIKSRMENAIIDGDIPYDRQAALDYIQQVYREMQEKGEA | not soluble
9 | MGSDKIHHHHHHMNAIQCETRTYEREYNTHDHSYGQMLFALHGAMEIQTPVYDTFQLEANFGLYLPPHVNHRFRAVARNEFIVVDIPARFLGDAVTTEQHVALDETWGALCHLFRGEAYQPASSQSLRPLVDYLTSKLAKKTLPASIHYMKQHFSEPLSLETLAAIEHYHPAYYSSWFKGYTGMSPSEYLQKLRVKAAKRLLGETTWSVARISIEVGYTHPSGLVRAFTKVEGMTPSAYRNTLH | not soluble
10 | MRGFLMFTSGPFDIDFVVLWVDGSDEKWLQKRAIYSSTKQQNNAVRFRDYGIFKYWFRAVAKYAPWVHHVYLVTDEQIPNWLSIQNSKVSVIDHKSIMPEDALPTFNSSAIELNIANIPGLSEHFVYFNDDMFLNRQVTPMDFFSEDGLPKDSAVQNAIMPVEDFDHMTANNVMLINQNFNKYQVLRRHPFRFFNFRYGFLNVLSICLLPWPRFTRFQDPHVPISFRKSVFEKVLNLHRDAWNETSHNRFRNRNDNTIWLIRYYQLVTAQFNPRTPFVGKKYNIGEMKKIVNDINTGKHKMICINDQNVSMAEFDNLTKQLRSTFRSKLPQKSEFEKMAGDPLEHHHHHH | not soluble
11 | MSLRDSAFFETGEKHFRTLCSSCHSAHQEIYGPMLGSISKKRKESWLIPFIRNSQEVIRSGDAYAKALFEKFDHQIMPPFEQLSDQDIKAILYYLEIESLQPQEYLNDAAIPPTSDSSVIRGKQEFLDHCSMCHFVHKESTFAPALGSVTKRHSREWLISFIQNSEKKINQGDAYAVHLFNQFDQHVMTNMDFLPIEEINAILDYIEFASTVDVAEGHHHHHH | not soluble
12 | MGSDKIHHHHHHADMDGSQNKETENKEIKIILEAETSSQNIFAPIVFYQSFDFGKDAPCLSEVYDSIVWKSSHSPNSFKVFSHSNYARYVETTFFKWAHVYYSPGTYKTYLLGYKNNEIIYSSDTISIDITNKKDFLAFNWKDVTDSDFTTGYANNLDGYYLSTQTHIHQGVPSVMLYAKNEKYEKGGSMKSKQILYNYINSFFSLPNYTATSDESLRKEFSTIFSFQEENAIPLNIWLTPKAKIVLLRKDFKGLESEYKIYAEPGDLI | not soluble
13 | MGSDKIHHHHHHMASNITGFELFKSNPNWQELPDSFWEFCSAHGRVRHYAAKQFLFFFGEESNSVYFLLKGRIQILLMSEFTEKIFRILQPPAFFPEVVLDSKTYPYAALTAEASDVFVLDRKALVQYFKENPSTLLPFYQNMALDLRRAYRQIKNIALGDARSRLGAKLFALAHVHGQETPEGILITVPLTATELAGMCSLARESVSRILSELRDLGILKMEKKQITISDLEQLRSWIHERQNSL | not soluble
14 | MNANLPPSAISELHGPRLLLRAWRDSDREAFAEMCADPQVMEFFPSVLDRAQSDALVDRVQAHFAERGYGPWALELPGEAAFIGFTGLFDVTMDVHFAPTVEIGWRLAPAYWGRGLAREAAETALDFAFERLRLPEVVAFTTPPNRRSWGLMERLGMRRDPAEDFDHPLLAADHPMRRHILYRVDAARWAER | not soluble
15 | MGGSHHHHHHRSESTVTEELKEGIDAVYPSLVGTADSKAEGIKNYFKLSFTLPEEQKSRTVGSEAPLKDVAQALSSRARYELFTEKETANPAFNGEVIKRYKELMEHGEGIADILRSRLAKFLNTKDVGKRFAQGTEANRWVGGKLLNIVEQDGDTFKYNEQLLQTAVLAGLQWRLTATSNTAIKDAKDVAAITGIDQALLPEGLVEQFDTGMTLTEAVSSLAQKIESYWGLSRNPNAPLGYTKGIPTAMAAEILAAFVESTDVVENIVDMSEIDPDNKKTIGLYTITELDSFDPINSFPTAIEEAVLVNPTEKMFFGDDIPPVANTQLRNPAVRNTPEQKAALKAEQATEFYVHTPMVQFYETLGKDRILELMGAGTLNKELLNDNHAKSLEGKNRSVEDSYNQLFSVIEQVRAQSEDISTVPIHYAYNMTRVGRMQMLGKYNPQSAKLVREAILPTKATLDLSNQNNEDFSAFQLGLAQALDIKVHTMTREVMSDELTKLLEGNLKPAIDMMVEFNTTGSLPENAVDVLNTALGDRKSFVALMALMEYSRYLVAEDKSAFVTPLYVEADGVTNGPINAMMLMTGGLFTPDWIRNIAKGGLFIGSPNKTMNEHRSTADNNDLYQASTNALMESLGKLRSNYASNMPIQSQIDSLLSLMDLFLPDINLGENGALELKRGIAKNPLTITIYGSGARGIAGKLVSSVTDAIYERMSDVLKARAKDPNISAAMAMFGKQAASEAHAEELLARFLKDMETLTSTVPVKRKGVLELQSTGTGAKGKINPKTYTIKGEQLKALQENMLHFFVEPLRNGITQTVGESLVYSTEQLQKATQIQSVVLEDMFKQRVQEKLAEKAKDPTWKKGDFLTQKELNDIQASLNNLAPMIETGSQTFYIAGSENAEVANQVLATNLDDRMRVPMSIYAPAQAGVAGIPFMTIGTGDGMMMQTLSTMKGAPKNTLKIFDGMNIGLNDITDASRKANEAVYTSWQGNPIKNVYESYAKFMKNVDFSKLSPEALEAIGKSALEYDQRENATVDDIANAASLIERNLRNIALGVDIRHKVLDKVNLSIDQMAAVGAPYQNNGKIDLSNMTPEQQADELNKLFREELEARKQKVAKA | soluble
16 | MGSDKIHHHHHHMLRPESEAELAQIVAGLTAPVRIRGGGTRGVPGPKAELDISGLSGITLYEPGALTLVAKAGTPVAEIEAALAAEGQRLAFEPVDHRGLMGTGGTPTIGGVVAGNISGPRRIQAGAARDFLLGVRYVDGLGQVISNGGRVMKNVTGYDLVKLMAGSWGTLGVLSEVSLKVLPKAETQTTLAISVPDAASAVRALSAGLGSPYEVTGAAYDPALGQALVRIEGFEASVAYRAEALSRLFAPFGTVARLEDDPWPGIRDVAPFHGREGDVWRISVKPGDAPELAARCKAEALLFDWGGGLIWALMPEGADLRGRLGEFAGHATLIRGDRRQHAMFQPESAPLAALTRGLRQRFDPKGHFNPGLMG | not soluble
17 | MGSDKIHHHHHHMVLVVAGFDPSGGAGIIQDVKVLSALGVKTHAVISALTVQNENRVFSVNFRDWEEMRKEIEVLTPPRVIKVGLSAPETVKRLREMFPDSAIVWNVVLESSSGFGFQDPEEVKKFVEYADYVILNSEEAKKLGEYNNFIVTGGHEKGNTVKVKYRDFVFEIPRVPGEFHGTGCAFSSAVSGFLAMSYPVEEAIRSAMELLKKILERSSGVVETEKLLRDWYRYDTLNTLDEILPEFLEIGHLTVPEVGQNVSYALPWAKNEFEVGKFPGRIRLKEGKAVAVSCASFKDRSHTARMAVTMMRYHPHMRCVVNVRYEREYVERAKKRGLKVFHYDRSKEPKEVQEKEGQSMVWMIEQAIAELKSPPDVIYDEGWWGKEAMIRVFGRNPKEVLEKIKLMVRE | not soluble
18 | MKNPGTHILPKNPECSKQKTLTKQLLLLELFEFQLDAQIQQNTFQLELTIQRRKEHLEIDSVMKIKNRNFANFGMFNSLHIIRFWNLFYNRISAADFPENSGFRMFATEILVKLENIGNVM | not soluble
